Measured values reported in PMC10404369, “Epithelial cell adhesion molecule (EpCAM) regulates HGFR signaling to promote colon cancer progression and metastasis” (Journal of Translational Medicine, 2023).

B1: EpEX_(ΔEGFII)-Fc (Fc fusion, human, UniProt P16422 24-265, looked up)
chain: QEECVCENYKLAVNCFVNNNRQCQCTSVGAQNTVICSKLAAKSERVRTYWIIIELKHKAREKPYDSKSLRTALQKEITTRYQLDPKFITSILYENNVITIDLVQNSSQKTQNDVDIADVAYYFEKDVKGESLFHSKKMDLTVNGEQLDLDPGQTLIYYVDEKAPEFSMQGLK
notes: EpEX, extracellular domain of EpCAM, with EGF-like domain II (amino acids 66–135) deleted; also called EGF-like-domain deletion mutant-Fc
B2: EpEX-Fc recombinant protein (Fc fusion, human, UniProt P16422 24-265, looked up)
chain: QEECVCENYKLAVNCFVNNNRQCQCTSVGAQNTVICSKLAAKCLVMKAEMNGSKLGRRAKPEGALQNNDGLYDPDCDESGLFKAKQCNGTSMCWCVNTAGVRRTDKDTEITCSERVRTYWIIIELKHKAREKPYDSKSLRTALQKEITTRYQLDPKFITSILYENNVITIDLVQNSSQKTQNDVDIADVAYYFEKDVKGESLFHSKKMDLTVNGEQLDLDPGQTLIYYVDEKAPEFSMQGLK
notes: also called recombinant EpEX-Fc
B3: EpEX_(ΔEGFI)-Fc (Fc fusion, human, UniProt P16422 24-265, looked up)
chain: QEESKLAAKCLVMKAEMNGSKLGRRAKPEGALQNNDGLYDPDCDESGLFKAKQCNGTSMCWCVNTAGVRRTDKDTEITCSERVRTYWIIIELKHKAREKPYDSKSLRTALQKEITTRYQLDPKFITSILYENNVITIDLVQNSSQKTQNDVDIADVAYYFEKDVKGESLFHSKKMDLTVNGEQLDLDPGQTLIYYVDEKAPEFSMQGLK
notes: EpEX, extracellular domain of EpCAM, with EGF-like domain I (amino acids 27–59) deleted; also called EGF-like-domain deletion mutant-Fc

Columns and labels:
[1] = target: T1, HGFRECD-His recombinant protein (human, UniProt P08581 25-932); assay: ELISA; HGFR-His recombinant protein (2 μg/ml) added to plates coated with EGF-like-domain deletion mutant-Fc (1 μg/ml); TMB colorimetric peroxidase assay; details: both partners purified
T1 construct: human HGFR (c-MET) recombinant protein, extracellular domain; also called HGFR-His; HGFR-His recombinant protein; source: bought: Sino Biological

[2] = target: T1, HGFRECD-His recombinant protein; assay: pull-down; EpEX-Fc and HGFR-His recombinant protein (2.5 μg/ml); IP with Dynabeads Protein G, Western blotting with anti-6× His tag antibody; details: both partners purified

T1 sequence (P08581 25-932): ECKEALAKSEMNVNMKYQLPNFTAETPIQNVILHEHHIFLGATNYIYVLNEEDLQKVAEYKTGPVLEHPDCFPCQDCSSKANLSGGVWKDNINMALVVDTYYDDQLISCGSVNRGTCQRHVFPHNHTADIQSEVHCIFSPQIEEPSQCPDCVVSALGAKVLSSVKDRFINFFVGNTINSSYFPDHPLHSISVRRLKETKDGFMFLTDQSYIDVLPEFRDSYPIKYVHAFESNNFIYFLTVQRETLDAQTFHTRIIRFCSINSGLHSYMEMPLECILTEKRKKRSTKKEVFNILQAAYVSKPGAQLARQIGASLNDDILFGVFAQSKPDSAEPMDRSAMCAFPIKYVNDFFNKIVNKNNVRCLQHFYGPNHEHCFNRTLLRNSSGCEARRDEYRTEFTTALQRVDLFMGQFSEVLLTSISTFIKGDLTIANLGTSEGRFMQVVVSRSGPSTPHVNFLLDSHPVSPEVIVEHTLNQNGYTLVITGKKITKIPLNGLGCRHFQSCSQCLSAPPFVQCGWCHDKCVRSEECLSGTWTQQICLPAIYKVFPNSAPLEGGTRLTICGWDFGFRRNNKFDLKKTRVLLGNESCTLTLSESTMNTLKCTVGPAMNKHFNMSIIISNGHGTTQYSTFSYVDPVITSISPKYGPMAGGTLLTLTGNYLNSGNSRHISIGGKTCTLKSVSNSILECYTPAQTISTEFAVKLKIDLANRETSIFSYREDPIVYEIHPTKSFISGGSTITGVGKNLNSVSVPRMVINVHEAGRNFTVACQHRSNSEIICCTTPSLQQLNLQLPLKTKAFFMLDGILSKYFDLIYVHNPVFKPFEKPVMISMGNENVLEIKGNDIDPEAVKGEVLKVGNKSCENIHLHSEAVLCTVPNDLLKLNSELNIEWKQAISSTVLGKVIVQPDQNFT

Binder	binding result [1]	binding result [2]
B1	binds	
B2		binds
B3	binds	
